Measurements from patent publication US6462178B1, “G protein” (Yong Hou Wong, priority 1999, dated 2002).
Where two headings read alike, the source gives them in different places. One block for each molecule: values may come before it.

Key:
dopamine D2 receptor [1] = molecular target: T1, dopamine D2 receptor (Homo sapiens, UniProt P14416); settings: COS-7, receptor + Gα16, 10 μM dopamine, cited from earlier work
dopamine D2 receptor [2] = molecular target: T1, dopamine D2 receptor; settings: 10 μM dopamine; for IP Formation % Res.: relative to basal
melatonin Mel1c receptor [3] = molecular target: melatonin Mel1c receptor
melatonin Mel1b receptor = molecular target: T2, melatonin Mel1b receptor
T2 sequence (P49286 whole entry, species assumed, looked up): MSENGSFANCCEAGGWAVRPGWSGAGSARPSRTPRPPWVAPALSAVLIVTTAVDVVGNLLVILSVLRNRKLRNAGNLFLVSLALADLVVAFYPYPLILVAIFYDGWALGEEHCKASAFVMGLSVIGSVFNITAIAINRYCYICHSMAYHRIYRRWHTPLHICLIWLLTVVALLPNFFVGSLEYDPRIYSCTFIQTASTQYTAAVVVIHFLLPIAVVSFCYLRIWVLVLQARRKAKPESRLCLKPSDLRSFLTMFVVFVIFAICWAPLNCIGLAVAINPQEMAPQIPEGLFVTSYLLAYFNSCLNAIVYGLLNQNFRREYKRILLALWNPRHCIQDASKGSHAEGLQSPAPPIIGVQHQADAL

[4] = molecular target: formyl peptide (fMLP) receptor
[5] = molecular target: opioid receptor-like (ORL1) receptor
dopamine D2 receptor [6] = molecular target: dopamine D2 receptor
melatonin Mel1c receptor [7] = molecular target: melatonin Mel1c receptor; remark: listed apart in the source
[8] = COS-7, receptor + 16z25 chimera
[9] = COS-7, receptor + 16z44 chimera

T1 sequence (P14416 whole entry): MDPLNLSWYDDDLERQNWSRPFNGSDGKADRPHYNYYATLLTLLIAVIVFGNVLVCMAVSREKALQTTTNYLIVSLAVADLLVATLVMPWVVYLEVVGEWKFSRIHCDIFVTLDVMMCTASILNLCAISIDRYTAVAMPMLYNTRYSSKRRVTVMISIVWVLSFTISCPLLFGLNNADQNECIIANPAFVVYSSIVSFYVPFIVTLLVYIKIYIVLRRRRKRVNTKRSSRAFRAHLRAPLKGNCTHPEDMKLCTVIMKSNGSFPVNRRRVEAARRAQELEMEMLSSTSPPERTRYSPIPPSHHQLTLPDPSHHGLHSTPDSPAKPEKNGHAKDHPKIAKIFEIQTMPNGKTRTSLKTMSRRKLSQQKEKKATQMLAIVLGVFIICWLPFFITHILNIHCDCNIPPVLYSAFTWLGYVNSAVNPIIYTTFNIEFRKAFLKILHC
T1 sequence (P14416 whole entry): as above
complement C5a receptor, sequence (P21730 whole entry): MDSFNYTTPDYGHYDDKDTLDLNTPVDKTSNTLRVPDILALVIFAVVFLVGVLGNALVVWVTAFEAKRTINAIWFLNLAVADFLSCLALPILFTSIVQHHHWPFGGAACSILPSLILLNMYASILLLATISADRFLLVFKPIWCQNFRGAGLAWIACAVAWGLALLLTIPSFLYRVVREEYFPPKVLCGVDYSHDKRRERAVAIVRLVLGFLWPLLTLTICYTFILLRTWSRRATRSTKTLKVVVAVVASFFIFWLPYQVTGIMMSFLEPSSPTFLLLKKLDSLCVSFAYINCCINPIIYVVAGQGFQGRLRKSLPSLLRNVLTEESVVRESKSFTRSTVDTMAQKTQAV

IP Formation Agonist (dopamine D2 receptor [2]; [8]): 40.1 ± 0.9 | IP Formation % Res. (dopamine D2 receptor [2]; [8]): 324% | IP Formation Agonist (dopamine D2 receptor [2]; [9]): 84.5 ± 6.2 | IP Formation % Res. (dopamine D2 receptor [2]; [9]): 302%
Molecule: NCCc1ccc(O)c(O)c1 [dopamine]
IP Formation Agonist (dopamine D2 receptor [1]): 24.0 ± 2.3 | IP Formation % Res. (dopamine D2 receptor [1]; relative to basal): 207a %

IP formation (PLC stimulation), % Res. (β2-adrenergic receptor): 307 % Res. | IP formation (PLC stimulation), % Res. (α2-adrenergic receptor): 297 % Res. | IP formation (PLC stimulation), % Res. (µ-opioid receptor): 269 % Res. | IP formation (PLC stimulation), % Res. (κ-opioid receptor): 257 % Res. | IP formation (PLC stimulation), % Res. (complement C5a receptor): 457 % Res. | IP formation (PLC stimulation), % Res. (melatonin Mel1c receptor [3]): 307 % Res. | IP formation (PLC stimulation), % Res. (melatonin Mel1b receptor): 177 % Res. | IP formation (PLC stimulation), % Res. [4]: 428 % Res. | IP formation (PLC stimulation), % Res. (δ-opioid receptor): 548 % Res. | IP formation (PLC stimulation), % Res. [5]: 380 % Res. | IP formation (PLC stimulation), % Res. (melatonin Mel1a receptor): 171 % Res. | IP formation (PLC stimulation), % Res. (vasopressin V2 receptor): 321 % Res. | IP formation (PLC stimulation), % Res. (dopamine D2 receptor [6]): 302 % Res. | IP formation (PLC stimulation), % Res. (dopamine D1 receptor): 287 % Res. | IP formation (PLC stimulation), % Res. (adenosine A1 receptor): 188 % Res. | IP formation, enhancement of the agonist response by coexpressed 16z44 (5HT1c receptor): 43% | IP formation, enhancement of the agonist response by coexpressed 16z44 (muscarinic m1 receptor): 34% | IP formation, enhancement of the agonist response by coexpressed 16z44 (bombesin receptor): 57% | EC50 of 2-iodomelatonin for IP formation (melatonin Mel1c receptor [7]): 400 pM
B1: 16z44 chimera (protein)
chain: MARSLTWRCCPWCLTEDEKAAARVDQEINRILLEQKKQDRGELKLLLLGPGESGKSTFIKQMRIIHGAGYSEEERKGFRPLVYQNIFVSMRAMIEAMERLQIPFSRPESKHHASLVMSQDPYKVTTFEKRYAAAMQWLWRDAGIRACYERRREFHLLDSAVYYLSHLERITEEGYVPTAQDVLRSRMPTTGINEYCFSVQKTNLRIVDVGGQKSERKKWIHCFENVIALIYLASLSEYDQCLEENNQENRMKESLALFGTILELPWFKSTSVILFLNKTDILEEKIPTSHLATYFPSFQGPKQDAEAAKRFILDMYTRMYTGCVDGPEGSNRNKETKEIYSHFTCATDTSNIQFVFDAVTDVIIQNNLKYIGLC
